# Laboratory results taken from patent US5968526A, “T cell epitopes of the major allergens from Dermatophagoides (house dust mite)” (Immulogic Pharamaceutical Corporation, priority 1995, dated 1999).
# Columns and labels:
# [1] = system: human IgE; assay: direct binding ELISA of IgE to mite allergen proteins and peptides; settings: for IgE binding (ELISA): pooled human plasma, 20 patients, FIGS. 19-21; for IgE binding (ELISA), modified peptides: plasma of 19 mite-allergic patients and pool of 18, Example XV
# Experimental: The coating antigens were removed and the wells are blocked with 0.5% gelatin in PBS, 300 μl/well for 2 hours at room temperature. Pooled human plasma (a mix of plasma samples from 20 patients that were skin test positive for commerical mite extract) was serially diluted with PBS-Tween 20 (PBS with 0.05% nonionic detergent Tween-20 Sigma, St. Louis, Mo.) and 100 μl/well a.backslash.was added and incubated overnight at 4° C. (plasma dilutions were tested in duplicate). The second antibody (biotinylated goat anti-Human IgE, 1:1000, Kirkegaard & Perry Laboratories Inc, Gaithersburg, Md.), was added at 100 μl/well for one hour at room temperature. This solution was removed and streptavidin-HRPO, 1:10000, (Southern Biotechnology Associates, Inc., Birmingham, Ala.) was then added at 100 μl/well for one hour at room temperature (all wells are washed three times with PBS-Tween between each incubation step). TMB Membrane Peroxidase Substrate system (Kirkegaard & Perry Laboratories) was freshly miced, and added at […]. The color was allowed to develop for 2-5 minutes. The reaction was stopped by the addition of […] of 1M phosphoric acid. Plates were read on a Microplate IL310 Autoreader (Biotech Instruments, Winooski, Vt.) with a 450 nm filter. The absorbance levels of duplicate wells were averaged. The order of coating antigens listed vertically in these figure legends corresponds in orDer from left to right to the coating antigens listed for each histogram.
# The antigen preparation that was used as a positive control was a mixture of the four major biochemically purified mite allergens (term PMA for Purified Mite Allergen); Der f I, Der f II, Der p I and Der p II. The stock was generated at a concentration of 100 μgs of each protein per millimeter or 400 μgs total protein/ml. This preparation was used on each coated ELISA plate.
# [2] = system: PBMC from mite-allergic patient; assay: primary T cell (PBMC) proliferation, mite-allergic patient, tritiated thymidine; format: cell-based, human; settings: for CPM ± S.D.: medium 1071 ± 30
# Experimental: Peripheral blood mononuclear cells (PBMC) were purified by Ficoll-Hypaque centrifugation of a peripheral blood specimen from mite-allergic patient and were assayed for proliferation in response to various antigens, i.e., affinity-purified Der p I, affinity purified Der p II, various Der p I and Der p II peptides. For assay, 5×10^4 PBMC were cultured in triplicate microwells for 7 days at 37° C. in the presence of various concentrations of antigen in 200 μl RPMI-1640 containing 5% human AB serum. Each well then received 1 μCi tritiated thymidine for 16 hours. The counts incorporated were collected onto glass fiber filters and processed for liquid scintillation counting. […] The CPM +/- standard deviation are shown. The stimulation index of each response (S.I.) is the ratio of the ^3 H-thymidine CPM incorporated by the cells in response to antigen divided by the ^3 H-thymidine CPM incorporated by cells in medium only. […] Thus, these peptides contain Der p I or Der p II T cell epitopes recognized by T cells from this particular allergic patient.
Molecule,IgE binding (ELISA) [1],S.I. ([2]; 10 μg/ml),CPM ± S.D. ([2]; 10 μg/ml) [CPM],S.I. ([2]; 30 μg/ml),CPM ± S.D. ([2]; 30 μg/ml) [CPM],S.I. ([2]; 100 μg/ml),CPM ± S.D. ([2]; 100 μg/ml) [CPM],"IgE binding (ELISA), modified peptides [1]"
biochemically purified Der f-- I: purified native group I allergen of Dermatophagoides farinae (protein) MKFVLAIASLLVLSTVYARPASIKTFEEFKKAFNKNYATVEEEEVARKNFLESLKYVEANKGAINHLSDLSLDEFKNRYLMSAEAFEQLKTQFDLNAETSACRINSVNVPSELDLRSLRTVTPIRMQGGCGSCWAFSGVAATESAYLAYRNTSLDLSEQELVDCASQHGCHGDTIPRGIEYIQQNGVVEERSYPYVAREQRCRRPNSQHYGISNYCQIYPPDVKQIREALTQTHTAIAVIIGIKDLRAFQHYDGRTIIQHDNGYQPNYHAVNIVGYGSTQGDDYWIVRNSWDTTWGDSGYGYFQAGNNLMMIEQYPYVVIM,binding,–,–,–,–,–,–,–
Der p I: affinity purified native group I allergen of Dermatophagoides pteronyssinus (protein) KNRFLMSAEAFEHLKTQFDLNAETNACSINGNAPAEIDLRQMRTVTPIRMQGGCGSCWAFSGVAATESAYLAHRNQSLDLAEQELVDCASQHGCHGDTIPRGIEYIQHNGVVQESYYRYVAREQSCRRPNAQRFGISNYCQIYPPNANKIREALAQTHSAIAVIIGIKDLDAFRHYDGRTIIQRDNGYQPNYHAVNIVGYSNAQGVDYWIVRNSWDTNWGDNGYGYFAANIDLMMIEEYPYVVIL,–,0.9,920 ± 15,2.0,2122 ± 93,1.4,1492 ± 13,All samples did contain IgE
biochemically purified Der f II: purified native group II allergen of Dermatophagoides farinae (protein) DQVDVKDCANNEIKKVMVDGCHGSDPCIIHRGKPFTLEALFDANQNTKTAKTEIKASLDGLEIDVPGIDTNACHFMKCPLVKGQQYDAKYTWNVPKIAPKSENVVVTVKLVGDNGVLACAIATHAKIRD,binding,–,–,–,–,–,–,–
Der p II: affinity purified native group II allergen of Dermatophagoides pteronyssinus (protein) MMYKILCLSLLVAAVARDQVDVKDCANHEIKKVLVPGCHGSEPCIIHRGKPFQLEAVFEANQNTKTAKIEIKASIDGLEVDVPGIDPNACHYMKCPLVKGQQYDIKYTWNVPKIAPKSENVVVTVKVMGDDGVLACAIATHAKIRD,good binding,1.0,1113 ± 35,2.0,2104 ± 43,1.0,1057 ± 27,All samples did contain IgE
